PMC2761027
Numbering of substitutions follows the chain as printed. In names and notes the source's numbering stands.

Key:
purified protein = substrate: Nc1ncnc2c1ncn2[C@@H]1O[C@H](COP(=O)(O)OP(=O)(O)OP(=O)(O)O)[C@@H](O)[C@H]1O; test: purified protein; assay type: biochemical, Mycolicibacterium smegmatis; details: salmon sperm DNA, 5 mM MgCl2, pH 8.0, 37 °C, labelled compound
[1] = substrate: O=c1ccn([C@@H]2O[C@H](COP(=O)(O)OP(=O)(O)OP(=O)(O)O)[C@@H](O)[C@H]2O)c(=O)[nH]1; test: labelled UDP formation from labelled UTP, TLC, Michaelis-Menten fit; assay type: biochemical, Mycolicibacterium smegmatis; details: salmon sperm DNA, 5 mM MgCl2, pH 8.0, 37 °C, labelled compound

B1: UvrD1 (Mycolicibacterium smegmatis MC2 155) (protein)
chain: MTSPSATPFAAETDQLLDGLNPQQRQAVLHEGSPLLIVAGAGSGKTAVLTRRIAYLLAEREVGVGQVLAITFTNKAAAEMRERVVQLVGPRAKAMWVSTFHSTCVRILRNQASLLPGLNSNFSIYDSDDSRRLLMMIGKDLGLDTKRYSPRLLANGISNLKNELIGPEQAAAEASEASDEMATVIAQVYGEYQRRLRAANALDFDDLIGETVAVLQAFPQIAQYYRRRFRHILVDEYQDTNHAQYVLVRELVGHHLEDHDGVPPSELCVVGDADQSIYAFRGATIRNIEDFERDFPDATTILLEQNYRSTQTILNAANAVIARNTGRREKRLWTDAGQGELIVGYVADNEHDEARFVADEIDALTDRHGYNYNDIAVFYRTNNSSRALEEVFIRAGIPYKVVGGVRFYERREIRDIVAYLRVLDNPGDSVSMRRILNTPRRGIGDRAEACVAVYAENTGVSFNEALQAAAEGRVPMLNTRSEKCIASFVQMLDDLRGKLDEELGDLVEAVLERTGYRRELEASSDPQDLARLDNLNELVSVAHEFSIDLANAQALAEESDEPVDEDIPDTGVLAQFLERVSLVADADDIPEEGSGVVTMMTLHTAKGLEFPAVFVTGWEDGMFPHMRALGDPNELSEERRLAYVGITRARQRLYLSRAKVRSSWGQPMLNPESRFLREIPQELIDWRRIEAPTPAYAAPGRMSSSGGGGIGFGSPRPSPNRPGGGRNKPLMVLQPGDRVTHDKYGLGRVEEVAGTGESAMSLIDFGSAGRVKLMHNHAPLQKL
Purified protein
  Km: 260 ± 40 µM
  kcat: 265 ± 22 s⁻¹

B2: UvrD1 (Mycolicibacterium smegmatis MC2 155; Q24A) (protein)
chain: B1 chain with Q24A
Purified protein
  Km: 690 ± 50 µM
  kcat: 95 ± 3 s⁻¹
[1]
  Km: 1210 ± 130 µM
  kcat: 86 ± 5 s⁻¹
